According to the supplement of paper PMC9112550, “Optimization of the antimicrobial peptide Bac7 by deep mutational scanning” (BMC Biology, 2022):

Tested on: Escherichia coli TOP10
Experiment: shrunken log2 fold change of peptide-encoding DNA abundance (4.5 h post-induction vs induction); higher = less antimicrobial activity (less host growth inhibition)
Conditions: time post-induction: 4.5 h; library: site-saturation at positions 5, 18, 19, 20
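Also: peptides expressed intracellularly from a pBAD plasmid library in pooled LB shake-flask culture, induced with 0.3% L-arabinose, DNA abundance read by NGS, three biological replicates, DESeq2 with apeglm shrinkage.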

Sequence	shrunken log2 fold change
RRIRYRPPRLPRPRPRPTVSPRP	-0.288
RRIRGRPPRLPRPRPRPNNYPRP	0.0781
RRIRERPPRLPRPRPRPGCFPRP	0.199
RRIRTRPPRLPRPRPRPTRSPRP	-0.111
RRIRMRPPRLPRPRPRPIKNPRP	0.387
RRIRIRPPRLPRPRPRPGYTPRP	-0.206
RRIRGRPPRLPRPRPRPPMWPRP	1.1
RRIRIRPPRLPRPRPRPGMRPRP	0.43
RRIRWRPPRLPRPRPRPPKVPRP	0.136
RRIRSRPPRLPRPRPRPKGFPRP	0.158
RRIRQRPPRLPRPRPRPVILPRP	-0.0369
RRIRMRPPRLPRPRPRPHNIPRP	-0.0272
RRIRMRPPRLPRPRPRPEVTPRP	0.053
RRIRFRPPRLPRPRPRPTCDPRP	-0.0372
RRIRGRPPRLPRPRPRPGRGPRP	0.773
RRIRKRPPRLPRPRPRPNLEPRP	0.185
RRIRNRPPRLPRPRPRPECMPRP	0.406
RRIRMRPPRLPRPRPRPNEMPRP	0.318
RRIRMRPPRLPRPRPRPMQLPRP	0.33
RRIRQRPPRLPRPRPRPMVKPRP	0.0691
RRIRSRPPRLPRPRPRPYWCPRP	-0.161
RRIRFRPPRLPRPRPRPYDGPRP	-0.18
RRIRDRPPRLPRPRPRPNQSPRP	-0.527
RRIRERPPRLPRPRPRPADHPRP	-0.0618
RRIRVRPPRLPRPRPRPCLWPRP	0.0452

Sequence	shrunken log2 fold change
RRIRIRPPRLPRPRPRPIALPRP	-0.149
RRIRIRPPRLPRPRPRPLEWPRP	-0.0139
RRIRTRPPRLPRPRPRPEYMPRP	-0.263
RRIRTRPPRLPRPRPRPFANPRP	-0.116
RRIRKRPPRLPRPRPRPLFRPRP	0.696
RRIRFRPPRLPRPRPRPAEDPRP	0.0423
RRIRHRPPRLPRPRPRPHRQPRP	-0.0335
RRIRRRPPRLPRPRPRPAFVPRP	0.36
RRIRGRPPRLPRPRPRPLHYPRP	-0.0826
RRIRCRPPRLPRPRPRPTPHPRP	0.821
RRIRMRPPRLPRPRPRPWDRPRP	0.158
RRIRWRPPRLPRPRPRPPPAPRP	1.2
RRIRTRPPRLPRPRPRPKCPPRP	0.281
RRIRARPPRLPRPRPRPTWIPRP	0.291
RRIRRRPPRLPRPRPRPYTGPRP	-0.126
RRIRHRPPRLPRPRPRPCGYPRP	-0.0081
RRIRLRPPRLPRPRPRPYAFPRP	0.0808
RRIRYRPPRLPRPRPRPKNCPRP	-0.0167
RRIRYRPPRLPRPRPRPSATPRP	-0.104
RRIRYRPPRLPRPRPRPLTDPRP	-0.134
RRIRFRPPRLPRPRPRPVLQPRP	0.21
RRIRARPPRLPRPRPRPSRHPRP	-0.00582
RRIRARPPRLPRPRPRPCDAPRP	0.344
RRIRTRPPRLPRPRPRPPPRPRP	1.36
RRIRTRPPRLPRPRPRPLVSPRP	-0.0657

Sequence	shrunken log2 fold change
RRIRDRPPRLPRPRPRPTVPPRP	-0.326
RRIRKRPPRLPRPRPRPCCVPRP	0.265
RRIRARPPRLPRPRPRPYITPRP	-0.904
RRIRPRPPRLPRPRPRPLNSPRP	-0.262
RRIRFRPPRLPRPRPRPGGDPRP	0.37
RRIRRRPPRLPRPRPRPHNTPRP	-0.115
RRIRSRPPRLPRPRPRPMGDPRP	0.00987
RRIRQRPPRLPRPRPRPRECPRP	0.147
RRIRKRPPRLPRPRPRPCYSPRP	-0.178
RRIRARPPRLPRPRPRPFCCPRP	0.206
RRIRARPPRLPRPRPRPYREPRP	-0.0268
RRIRERPPRLPRPRPRPHFPPRP	-0.151
RRIRWRPPRLPRPRPRPEQFPRP	0.32
RRIRCRPPRLPRPRPRPCRAPRP	-0.0671
RRIRARPPRLPRPRPRPWTCPRP	0.0519
RRIRDRPPRLPRPRPRPYSIPRP	0.0125
RRIRQRPPRLPRPRPRPDVDPRP	-0.152
RRIRGRPPRLPRPRPRPCKDPRP	-0.0805
RRIRQRPPRLPRPRPRPPWVPRP	0.696
RRIRARPPRLPRPRPRPLAQPRP	0.578
RRIRWRPPRLPRPRPRPLTVPRP	-0.0954
RRIRGRPPRLPRPRPRPNWWPRP	3.32
RRIRARPPRLPRPRPRPIWYPRP	-0.147
RRIRRRPPRLPRPRPRPMPKPRP	0.0841
RRIRGRPPRLPRPRPRPNSQPRP	0.271

Sequence	shrunken log2 fold change
RRIRWRPPRLPRPRPRPLDRPRP	0.146
RRIRYRPPRLPRPRPRPLDGPRP	-0.467
RRIRCRPPRLPRPRPRPTVFPRP	0.197
RRIRQRPPRLPRPRPRPFNNPRP	-0.476
RRIRDRPPRLPRPRPRPGPNPRP	0.0518
RRIRQRPPRLPRPRPRPPKEPRP	-0.168
RRIRHRPPRLPRPRPRPASLPRP	-0.0081
RRIRIRPPRLPRPRPRPHYGPRP	-0.223
RRIRNRPPRLPRPRPRPERPPRP	0.499
RRIRDRPPRLPRPRPRPLGQPRP	0.0401
RRIRGRPPRLPRPRPRPMLDPRP	0.485
RRIRSRPPRLPRPRPRPRTSPRP	0.211
RRIRNRPPRLPRPRPRPANLPRP	-0.342
RRIRYRPPRLPRPRPRPDICPRP	-0.0244
RRIRMRPPRLPRPRPRPVIGPRP	-0.0424
RRIRFRPPRLPRPRPRPATQPRP	-0.00992
RRIRLRPPRLPRPRPRPCIIPRP	-0.394
RRIRFRPPRLPRPRPRPVEFPRP	-0.591
RRIRCRPPRLPRPRPRPFMEPRP	-0.996
RRIRTRPPRLPRPRPRPVLYPRP	-0.365
RRIRQRPPRLPRPRPRPITSPRP	-0.0775
RRIRKRPPRLPRPRPRPCYDPRP	-0.0387
RRIRCRPPRLPRPRPRPFLYPRP	-0.513
RRIRQRPPRLPRPRPRPKKEPRP	0.00476
RRIRNRPPRLPRPRPRPPIHPRP	-0.582

Sequence	shrunken log2 fold change
RRIRVRPPRLPRPRPRPGACPRP	0.0218
RRIRDRPPRLPRPRPRPNNNPRP	-0.667
RRIRPRPPRLPRPRPRPRMRPRP	0.92
RRIRFRPPRLPRPRPRPVSQPRP	0.0413
RRIRERPPRLPRPRPRPFKKPRP	-0.0194
RRIRDRPPRLPRPRPRPWQNPRP	-0.0811
RRIRFRPPRLPRPRPRPHYQPRP	-0.0104
RRIRVRPPRLPRPRPRPWVMPRP	-0.212
RRIRWRPPRLPRPRPRPMPCPRP	0.113
RRIRMRPPRLPRPRPRPLVAPRP	1.16
RRIRIRPPRLPRPRPRPAGVPRP	0.293
RRIRMRPPRLPRPRPRPGLRPRP	1.15
RRIRPRPPRLPRPRPRPRKTPRP	0.0393
RRIRKRPPRLPRPRPRPHREPRP	-0.0175
RRIRRRPPRLPRPRPRPLRMPRP	1.2
RRIRKRPPRLPRPRPRPMWNPRP	0.232
RRIRQRPPRLPRPRPRPNCHPRP	-0.548
RRIRYRPPRLPRPRPRPPCCPRP	-0.149
RRIRGRPPRLPRPRPRPFHKPRP	-0.411
RRIRSRPPRLPRPRPRPFVSPRP	-0.481
RRIRWRPPRLPRPRPRPIVIPRP	-0.353
RRIRLRPPRLPRPRPRPVNMPRP	-0.306
RRIRTRPPRLPRPRPRPTLSPRP	0.106
RRIRGRPPRLPRPRPRPVSSPRP	0.0973
RRIRLRPPRLPRPRPRPPNSPRP	0.0409
